As a reminder, the Kd is the constant that tells how readily two partners part at equilibrium. Lower therefore signals tighter binding. In general, koff refers to the rate constant with which the complex falls apart. In general, kon refers to the second-order rate constant of association. A low value points to slow association.

15 molecules from patent publication US20240076387A1 (published 2024) can be followed below.

Experiment [1] has as its target T1, Flt-1 antigen (species not stated) (Homo sapiens (Human), UniProt P17948 27-656).
T1 construct: also called sFlt-1; soluble Flt-1
Put plainly: surface plasmon resonance (Biacore), EXP 1. For orientation: In SPR one partner is held on a chip, and binding of the other changes the refractive index at the surface.

The target in experiment [2] is T1, Flt-1 antigen (species not stated at …). Put plainly: Biacore.
For experiment [3] the target is unchanged. Put plainly: kinetics of Table 7; 'increased' is said of a higher affinity (lower KD).
Experiment [4] has the same target. The experiment can be described thus: surface plasmon resonance (Biacore), EXP 2.
For experiment [5] the target is unchanged. The experiment can be described thus: kinetics, method not stated (Table 7).
Experiment [6] has the same target. Put plainly: off-rate of Fabs, method not stated.
Experiment [7] shares this target. The experiment can be described thus: surface plasmon resonance (Biacore); reference not named.

Values joined by “and” are separate entries in the source; they are usually repeats but may differ in a detail not shown here. Identical values can stand only once.

T1 sequence (P17948 other isoform, or with tags, fused parts or gaps limits assumed, form in doubt): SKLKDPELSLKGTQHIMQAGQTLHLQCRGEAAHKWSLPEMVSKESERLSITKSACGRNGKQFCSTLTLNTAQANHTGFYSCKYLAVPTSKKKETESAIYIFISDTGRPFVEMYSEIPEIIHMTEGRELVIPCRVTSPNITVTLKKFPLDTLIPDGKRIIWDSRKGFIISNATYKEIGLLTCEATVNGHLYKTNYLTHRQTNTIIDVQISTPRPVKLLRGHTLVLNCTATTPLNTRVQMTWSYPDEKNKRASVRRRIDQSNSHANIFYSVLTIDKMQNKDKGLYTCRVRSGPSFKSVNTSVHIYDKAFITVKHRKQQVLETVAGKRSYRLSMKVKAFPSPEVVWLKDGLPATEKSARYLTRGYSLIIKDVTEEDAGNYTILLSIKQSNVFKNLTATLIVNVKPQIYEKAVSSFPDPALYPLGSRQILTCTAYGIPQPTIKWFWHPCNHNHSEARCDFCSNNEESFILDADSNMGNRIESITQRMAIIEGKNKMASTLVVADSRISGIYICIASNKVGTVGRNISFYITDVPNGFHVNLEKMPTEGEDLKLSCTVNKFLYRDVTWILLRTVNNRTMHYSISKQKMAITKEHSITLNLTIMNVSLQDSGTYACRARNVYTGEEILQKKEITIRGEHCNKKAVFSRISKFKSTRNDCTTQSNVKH

B1: 27H9 (antibody, human IgG1, lambda, V domains shown)
VH: EVQLLESGGGLVQPGGSLRLSCAASGFTFRDYSMSWVRQAPGKGLEWVSAISWNGDSTYYAESAKGRFTISRDNSKNTLYLQMNSLRAEDTAVYYCAKSWATPIESLYYYGSDYWGQGTLVTVSS
VL: SYELTQPLSVSVALRQTARITCGGNNIGSQTAQWYQQKPGQAPVLVIYANNRRPSGIPERFSGSKSGNTATLTISRAQAEDEADYYCQVWDESTQAIVFGGGTKLTVLG
notes: also called 27H9 WT; 27H9 WT 23/07
B1: in experiment [1], the Kd is 0.23 nM and 0.26 nM; the koff was 7.9e-05 s⁻¹ and 8.4e-05 s⁻¹; the kon is 350000 M⁻¹ s⁻¹ and 330000 M⁻¹ s⁻¹. In experiment [2], this molecule had a Kd of 0.26 nM, a koff of 8.4e-05 s⁻¹ and a kon of 330000 M⁻¹ s⁻¹.

B2: 21B3 (antibody, V domains shown)
VH: ELQLVESGGGLVQPGGSLRLSCAASGFTFRDYSMSWVRQAPGKGLEWVSAISWNGDSTYYAESMKGRFTISRDNAKNTLYLQMNSLKSEDTAVYYCAKSWATPIESLYYYGMDYWGKGTLVTVSS
VL: SYELTQSPSVSVALRQTAKITCGGNNIGSQTAQWYQQKPGQAPVLVIYANNRRPSGIPERFSGSKSGNTATLTISGAQAEDEADYYCQVWDGSTQAIVFGGGTHLTVL
notes: also called 21B3 WT; antibody 21B3
As to B2, the “fold change of KD against parent antibody 13B4” value in experiment [3] is around 5 fold. In experiment [4], this molecule had a Kd of 0.32 nM, a koff of 0.00017 s⁻¹ and a kon of 540000 M⁻¹ s⁻¹. In experiment [5], this molecule returned a Kd of 0.0848 nM, a koff of 4.73e-05 s⁻¹ and a kon of 558000 M⁻¹ s⁻¹. Besides, in experiment [2], the Kd was 0.32 nM, the koff worked out at 0.00017 s⁻¹ and the kon amounted to 540000 M⁻¹ s⁻¹.

B3: 21B3 AAA (antibody, human IgG1, lambda, V domains shown)
VH: ELQLVESGGGLVQPGGSLRLSCAASGFTFRDYSMSWVRQAPGKGLEWVSAISWNGDSTYYAESMKGRFTISRDNAKNTLYLQMNSLKSEDTAVYYCAKSWATPIESLYYYGMDYWGKGTLVTVSS
VL: SYELTQSPSVSVALRQTAKITCGGNNIGSQTAQWYQQKPGQAPVLVIYANNRRPSGIPERFSGSKSGNTATLTISGAQAEDEADYYCQVWDGSTQAIVFGGGTHLTVLG
notes: AAA mutation in the Fc region
In the case of B3, in experiment [4], the affinity, expressed as Kd, was 0.21 nM; the koff amounted to 0.00011 s⁻¹; the kon was found to be 520000 M⁻¹ s⁻¹.

B4: 27H9 Fab (Fab, V domains shown)
VH: EVQLLESGGGLVQPGGSLRLSCAASGFTFRDYSMSWVRQAPGKGLEWVSAISWNGDSTYYAESAKGRFTISRDNSKNTLYLQMNSLRAEDTAVYYCAKSWATPIESLYYYGSDYWGQGTLVTVSS
VL: SYELTQPLSVSVALRQTARITCGGNNIGSQTAQWYQQKPGQAPVLVIYANNRRPSGIPERFSGSKSGNTATLTISRAQAEDEADYYCQVWDESTQAIVFGGGTKLTVL
notes: also called 27H9_VH
In the case of B4, the “kd IMPROVEMENT (against parent 21B3)” value in experiment [6] was found to be 1.12.

B5: 27H4 Fab (Fab, V domains shown)
VH: ELQLVESGGGLVQPGGSLRLSCAASGFTFRDYSMSWVRQAPGKGLEWVSAISWNGDSTYYAESLKGRFTISRDNAKNTLYLQMNSLRAEDTAVYYCAKSWATPIESLYYYGSDYWGQGTLVTVSS
VL: SYELTQPLSVSVALGQTARITCGGNNIGSQTAQWYQQKPGQAPVLVIYANNRRPSGIPERFSGSKSGNTATLTISRAQAEDEADYYCQVWEDSTQAIVFGGGTKLTVL
notes: also called 27H4_VH
For B5, the “kd IMPROVEMENT (against parent 21B3)” value in experiment [6] worked out at 1.06.

B6: 25F11 Fab (Fab, V domains shown)
VH: EVQLLESGGGLVQPGGSLRLSCAASGFTFRDYSMSWVRQAPGKGLEWVSAISWNGDSTYYAESAKGRFTISRDNSKNTLYLQMNSLRAEDTAVYYCAKSWATPIESLYYYGSDYWGQGTLVTVSS
VL: SYELTQPLSVSVALRQAARITCGGNNIGSQTAQWYQQKPGQAPVLVIYANNRRPSGIPERFSGSKSGNTATLTISRAQAEDEADYYCQVWEASTQAIVFGGGTKLTVL
notes: also called 25F11_VH
As to B6, the “kd IMPROVEMENT (against parent 21B3)” value in experiment [6] worked out at 1.

B7: 25G9 Fab (Fab, V domains shown)
VH: EVQLLESGGGLVQPGGSLRLSCAASGFTFRDYSMSWVRQAPGKGLEWVSAITWSGDSTYYAESVKGRFTISRDNSKNTLYLQMNSLRAEDTAVYYCAKSWATPIESLYYYGTDYWGKGTLVTVSS
VL: SYELTQPLSVSVALRQAARITCGGNNIGSQTAQWYQQKPGQAPVLVIYANNRRPSGIPERFSGSKSGNTATLTISRAQAEDEADYYCQVWDDSTQAIVFGGGTKLTVL
notes: also called 25G9_VH
For the molecule B7, the “kd IMPROVEMENT (against parent 21B3)” value in experiment [6] was 0.97.

B8: 27H9 NG/QG (antibody, human IgG1, lambda, V domains shown)
VH: EVQLLESGGGLVQPGGSLRLSCAASGFTFRDYSMSWVRQAPGKGLEWVSAISWQGDSTYYAESAKGRFTISRDNSKNTLYLQMNSLRAEDTAVYYCAKSWATPIESLYYYGSDYWGQGTLVTVSS
VL: SYELTQPLSVSVALRQTARITCGGNNIGSQTAQWYQQKPGQAPVLVIYANNRRPSGIPERFSGSKSGNTATLTISRAQAEDEADYYCQVWDESTQAIVFGGGTKLTVLG
As for B8, in experiment [1], the affinity, expressed as Kd, was 0.36 nM; the koff stood at 0.00013 s⁻¹; the kon was 370000 M⁻¹ s⁻¹.

B9: 27H4 (antibody, human IgG1, lambda, V domains shown)
VH: ELQLVESGGGLVQPGGSLRLSCAASGFTFRDYSMSWVRQAPGKGLEWVSAISWNGDSTYYAESLKGRFTISRDNAKNTLYLQMNSLRAEDTAVYYCAKSWATPIESLYYYGSDYWGQGTLVTVSS
VL: SYELTQPLSVSVALGQTARITCGGNNIGSQTAQWYQQKPGQAPVLVIYANNRRPSGIPERFSGSKSGNTATLTISRAQAEDEADYYCQVWEDSTQAIVFGGGTKLTVLG
notes: also called 27H4 WT; antibody 27H4
In experiment [2], B9 returned a Kd of 0.25 nM, a koff of 8.2e-05 s⁻¹ and a kon of 340000 M⁻¹ s⁻¹.

B10: 25D4 Fab (Fab, V domains shown)
VH: EVQLLESGGGLVQPGGSLRLSCAASGFTFRDYSASWVRQAPGKGLEWVSAISWNGDSTYYAESVKGRFTISRDNAKNTLYLQMNSLRAEDTAVYYCAKSWATPIESLYYYGSDYWGQGTLVTVSS
VL: SYELTQPLSVSVALGQTARITCGGNNIGSQTAQWYQQKPGQAPVLVIYANNRRPSGIPERFSGSKSGNTATLTISGAQAEDEADYYCQVWAASTQAIVFGGGTKLTVL
notes: also called 25D4_VH
In the case of B10, in experiment [6], the “kd IMPROVEMENT (against parent 21B3)” value came to 0.94.

B11: 27H6 (antibody, human IgG1, lambda, V domains shown)
VH: ELQLVESGGGLVQPGGSLRLSCAASGFTFSDYSASWVRQAPGKGLEWVSAISWSGDSTYYAESVKGRFTIFRDNSKNTLYLQMNSLRAEDTAVYYCAKSWATPIESLYYYGSDYWGQGTLVTVSS
VL: SYELTQPLSVSVALRQAAKITCGGNNIGSQTAQWYQQKPGQAPVLVIYANNRRPSGIPERFSGSKSGNTATLTISRAQAGDEADYYCQVWDGSTQAIVFGGGTKLTVLG
notes: also called 27H6 WT; antibody 27H6
In experiment [2], B11 returned a Kd of 0.16 nM, a koff of 0.00014 s⁻¹ and a kon of 910000 M⁻¹ s⁻¹.

B12: 27G9 Fab (Fab, V domains shown)
VH: EVQLLESGGGLVQPGGSLRLSCAASGFTFRDYSASWVRQAPGKGLEWVSAISWSGDSTYYAESLKGRFTISRDNSKNTLYLQMNSLRAEDTAVYYCAKSWATPIESLYYYGSDYWGKGTLVTVSS
VL: SYELTQPLSVSVALGQTAKITCGGNNIGSQTAQWYQQKPGQAPVLVIYANNRRPSGIPERFSGSKSGNTATLTISRAQAEDEADYYCQVWEESTQAIVFGGGTHLTVL
notes: also called 27G9_VH
Regarding B12, in experiment [6], the “kd IMPROVEMENT (against parent 21B3)” value worked out at 1.3.

B13: 27H9 NG/NA AAA (antibody, human IgG1, lambda)
heavy: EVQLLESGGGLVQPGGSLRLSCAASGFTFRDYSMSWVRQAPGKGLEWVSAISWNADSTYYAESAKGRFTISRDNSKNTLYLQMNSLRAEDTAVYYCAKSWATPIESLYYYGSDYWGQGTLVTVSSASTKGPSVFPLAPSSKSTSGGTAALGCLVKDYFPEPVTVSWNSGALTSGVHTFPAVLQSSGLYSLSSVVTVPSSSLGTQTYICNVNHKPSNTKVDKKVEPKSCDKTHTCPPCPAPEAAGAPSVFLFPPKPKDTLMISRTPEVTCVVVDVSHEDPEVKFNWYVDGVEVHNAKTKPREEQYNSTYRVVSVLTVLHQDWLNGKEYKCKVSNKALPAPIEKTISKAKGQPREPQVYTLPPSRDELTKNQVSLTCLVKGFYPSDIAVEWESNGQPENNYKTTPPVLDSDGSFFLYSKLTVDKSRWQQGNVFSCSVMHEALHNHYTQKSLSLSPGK
light: SYELTQPLSVSVALRQTARITCGGNNIGSQTAQWYQQKPGQAPVLVIYANNRRPSGIPERFSGSKSGNTATLTISRAQAEDEADYYCQVWDESTQAIVFGGGTKLTVLGQPKAAPSVTLFPPSSEELQANKATLVCLISDFYPGAVTVAWKADSSPVKAGVETTTPSKQSNNKYAASSYLSLTPEQWKSHRSYSCQVTHEGSTVEKTVAPTECS
notes: also called 27H9_NA_+_AAA; 27H9 NA + AAA
Take B13: in experiment [7], the “fold reduced binding affinity” value was around 2 fold. In experiment [4], this molecule returned a Kd of 0.51 nM, a koff of 0.00015 s⁻¹ and a kon of 290000 M⁻¹ s⁻¹.

B14: 27H6 Fab (Fab, V domains shown)
VH: ELQLVESGGGLVQPGGSLRLSCAASGFTFSDYSASWVRQAPGKGLEWVSAISWSGDSTYYAESVKGRFTIFRDNSKNTLYLQMNSLRAEDTAVYYCAKSWATPIESLYYYGSDYWGQGTLVTVSS
VL: SYELTQPLSVSVALRQAAKITCGGNNIGSQTAQWYQQKPGQAPVLVIYANNRRPSGIPERFSGSKSGNTATLTISRAQAGDEADYYCQVWDGSTQAIVFGGGTKLTVL
notes: also called 27H6_VH
Regarding B14, the “kd IMPROVEMENT (against parent 21B3)” value in experiment [6] amounted to 0.96.

B15: 27H9 NG/NA (antibody, human IgG1, lambda)
heavy: not shown
light: SYELTQPLSVSVALRQTARITCGGNNIGSQTAQWYQQKPGQAPVLVIYANNRRPSGIPERFSGSKSGNTATLTISRAQAEDEADYYCQVWDESTQAIVFGGGTKLTVLGQPKAAPSVTLFPPSSEELQANKATLVCLISDFYPGAVTVAWKADSSPVKAGVETTTPSKQSNNKYAASSYLSLTPEQWKSHRSYSCQVTHEGSTVEKTVAPTECS
In experiment [4], B15 returned a Kd of 0.51 nM, a koff of 0.00015 s⁻¹ and an association rate constant (kon) of 290000 M⁻¹ s⁻¹. Further, in experiment [1], the Kd came to 0.39 nM, the koff was determined as 0.00011 s⁻¹ and the kon came out at 290000 M⁻¹ s⁻¹.
